Measurements published in patent publication US20230265215A1 (OMEROS, published 2023).

Assays:
[1] = target: T1, MASP-1 (human, UniProt P48740 20-699, limits assumed); assay: solid phase ELISA, immobilized protease, mean apparent KD of two lots
T1 construct: Species read from 'Recombinant human MASP-2 or C1r, C1s, CFD, MASP-1 and MASP-3'
T1 sequence (looked up): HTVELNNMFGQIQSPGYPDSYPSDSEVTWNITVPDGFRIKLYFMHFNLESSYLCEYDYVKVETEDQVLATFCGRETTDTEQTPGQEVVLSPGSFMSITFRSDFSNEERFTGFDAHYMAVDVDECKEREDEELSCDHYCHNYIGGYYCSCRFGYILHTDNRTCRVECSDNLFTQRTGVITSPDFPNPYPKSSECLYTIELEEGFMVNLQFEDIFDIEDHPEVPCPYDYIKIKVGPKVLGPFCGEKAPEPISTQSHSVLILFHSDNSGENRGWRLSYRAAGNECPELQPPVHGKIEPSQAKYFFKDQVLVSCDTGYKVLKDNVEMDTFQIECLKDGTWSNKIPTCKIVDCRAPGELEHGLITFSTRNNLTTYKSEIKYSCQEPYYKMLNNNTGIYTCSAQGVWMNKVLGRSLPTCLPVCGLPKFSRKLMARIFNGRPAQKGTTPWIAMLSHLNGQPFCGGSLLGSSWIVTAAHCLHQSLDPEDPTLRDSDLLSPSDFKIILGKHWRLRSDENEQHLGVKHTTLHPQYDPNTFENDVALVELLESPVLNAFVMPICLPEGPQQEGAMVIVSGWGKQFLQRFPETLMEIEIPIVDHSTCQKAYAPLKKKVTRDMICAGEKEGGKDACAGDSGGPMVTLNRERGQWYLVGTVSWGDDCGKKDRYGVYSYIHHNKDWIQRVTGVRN
Description: (§1) The apparent dissociation constant (KD) was estimated by nonlinear regression using a 4-parameter logistic model.
(§2) Fold selectivity calculated as KD(related serine protease)/mean KD(MASP-2).

[2] = target: T2, MASP-3 (human, UniProt P48740-2 20-728, limits assumed); assay: as above
T2 construct: Species read from 'Recombinant human MASP-2 or C1r, C1s, CFD, MASP-1 and MASP-3'
T2 sequence (looked up): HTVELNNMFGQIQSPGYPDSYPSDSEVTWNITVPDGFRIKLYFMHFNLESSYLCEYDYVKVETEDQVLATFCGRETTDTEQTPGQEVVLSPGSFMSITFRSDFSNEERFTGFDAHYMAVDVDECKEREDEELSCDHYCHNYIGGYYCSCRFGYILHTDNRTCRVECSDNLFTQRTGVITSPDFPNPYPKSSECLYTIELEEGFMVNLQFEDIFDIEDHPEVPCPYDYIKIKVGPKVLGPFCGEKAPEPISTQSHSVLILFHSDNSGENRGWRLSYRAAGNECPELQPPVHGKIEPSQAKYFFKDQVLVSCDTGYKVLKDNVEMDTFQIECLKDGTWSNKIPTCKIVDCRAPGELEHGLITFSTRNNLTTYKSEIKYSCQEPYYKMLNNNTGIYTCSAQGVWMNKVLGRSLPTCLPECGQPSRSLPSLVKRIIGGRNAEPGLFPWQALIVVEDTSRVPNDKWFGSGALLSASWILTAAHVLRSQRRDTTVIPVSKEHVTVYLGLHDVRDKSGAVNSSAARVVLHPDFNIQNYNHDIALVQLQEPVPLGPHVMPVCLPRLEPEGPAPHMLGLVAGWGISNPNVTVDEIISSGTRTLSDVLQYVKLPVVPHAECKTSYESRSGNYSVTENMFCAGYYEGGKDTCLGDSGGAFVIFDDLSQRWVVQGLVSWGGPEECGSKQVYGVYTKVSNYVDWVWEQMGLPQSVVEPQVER
Description: as §1, §2

[3] = target: Recombinant human MASP-2 (specificity ELISA, Example 14) (human, UniProt O00187 16-686, limits assumed); assay: as above
Description: as §1, §2

[4] = target: Mouse MASP-2 CCP1/CCP2/SP (mouse, UniProt Q91WP0 287-685, limits assumed); assay: BLI (Octet RED96), OMS858 on anti-human Fc capture sensors, MASP-2 protein 1.6-50 nM
Description: (§3) All measurements were conducted with the Octet RED96 system (ForteBio) using PBS containing 1% BSA and 0.02% Tween 20 as assay buffer. […] After one step of baseline, the captured sensors were submerged into wells containing different concentrations of the target proteins (1.6-50 nM) for the association step (120 sec), and then transferred to empty wells for the dissociation step (200 sec). In all experiments, the captured sensor was also dipped in a well containing no analyte to allow single reference subtraction to compensate for the natural dissociation of the captured antibody. The recorded binding sensorgrams were analyzed with Octet data analysis software (ForteBio) to determine binding affinity (KD).

[5] = target: T3, Human MASP-2 CCP1/CCP2/SP H508Q 'dog-like' (human, UniProt O00187 287-686, limits assumed); assay: as above
T3 construct: also called dog-like variant of human MASP-2; MASP-2 H508Q
Description: as §3

[6] = target: T4, Human MASP-2 CCP1/CCP2/SP (6xHis, E. coli, Example 10) (human, UniProt O00187 287-686, limits assumed); assay: as above
T4 construct: Expressed in BL21(DE3)pLysS E. coli and purified by IMAC; It may be the same protein as m6; also called catalytic fragment (CCP1-CCP2-SP domains) of human MASP-2; wild-type human H508
Description: as §3

[7] = target: T5, Cyno MASP-2 CCP1/CCP2/SP (cynomolgus monkey, UniProt O00187 287-686 (human entry), limits assumed); assay: as above
T5 construct: also called cynomolgus monkey MASP-2 CCP1/CCP2/SP
Description: as §3

[8] = target: T1, MASP-1; assay: solid phase ELISA, immobilized protease, apparent KD
Description: as §1

Sequence of Mouse MASP-2 CCP1/CCP2/SP (Q91WP0 other isoform, or with tags, fused parts or gaps limits assumed): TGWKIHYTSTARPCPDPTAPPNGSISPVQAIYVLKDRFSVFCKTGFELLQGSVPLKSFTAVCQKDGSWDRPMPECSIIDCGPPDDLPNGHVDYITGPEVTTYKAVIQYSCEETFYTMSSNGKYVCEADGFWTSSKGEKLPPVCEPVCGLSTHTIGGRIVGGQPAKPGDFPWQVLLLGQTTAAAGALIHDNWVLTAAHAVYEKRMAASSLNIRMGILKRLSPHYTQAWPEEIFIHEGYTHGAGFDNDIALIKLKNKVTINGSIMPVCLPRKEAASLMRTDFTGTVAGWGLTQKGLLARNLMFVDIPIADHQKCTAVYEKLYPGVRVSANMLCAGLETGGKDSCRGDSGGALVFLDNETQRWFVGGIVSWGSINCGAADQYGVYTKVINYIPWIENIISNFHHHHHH
T5 sequence (O00187 other isoform, or with tags, fused parts or gaps limits assumed): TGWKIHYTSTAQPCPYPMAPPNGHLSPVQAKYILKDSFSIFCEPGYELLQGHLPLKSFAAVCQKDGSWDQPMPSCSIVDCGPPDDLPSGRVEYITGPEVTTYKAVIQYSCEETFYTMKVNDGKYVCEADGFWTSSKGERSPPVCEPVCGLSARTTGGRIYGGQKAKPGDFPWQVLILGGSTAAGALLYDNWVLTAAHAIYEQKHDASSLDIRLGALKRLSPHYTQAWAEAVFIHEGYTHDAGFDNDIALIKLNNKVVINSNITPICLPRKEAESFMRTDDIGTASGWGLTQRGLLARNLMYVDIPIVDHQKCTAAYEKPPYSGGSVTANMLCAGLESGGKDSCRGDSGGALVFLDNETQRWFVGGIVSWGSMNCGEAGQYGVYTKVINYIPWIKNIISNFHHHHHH
T3 sequence (O00187 other isoform, or with tags, fused parts or gaps H508Q H508Q limits assumed): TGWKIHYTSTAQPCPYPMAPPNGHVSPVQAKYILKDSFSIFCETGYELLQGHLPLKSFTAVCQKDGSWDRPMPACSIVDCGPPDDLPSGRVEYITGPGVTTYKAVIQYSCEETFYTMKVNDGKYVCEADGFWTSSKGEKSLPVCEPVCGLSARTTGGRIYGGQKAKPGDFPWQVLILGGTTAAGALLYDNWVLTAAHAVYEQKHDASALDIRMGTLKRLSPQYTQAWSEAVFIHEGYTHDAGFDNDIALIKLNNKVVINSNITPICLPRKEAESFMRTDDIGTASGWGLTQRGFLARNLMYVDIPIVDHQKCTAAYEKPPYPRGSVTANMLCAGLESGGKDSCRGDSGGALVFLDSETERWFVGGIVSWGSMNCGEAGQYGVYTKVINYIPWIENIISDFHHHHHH
Sequence of Recombinant human MASP-2 (specificity ELISA, Example 14) (O00187 16-686 limits assumed): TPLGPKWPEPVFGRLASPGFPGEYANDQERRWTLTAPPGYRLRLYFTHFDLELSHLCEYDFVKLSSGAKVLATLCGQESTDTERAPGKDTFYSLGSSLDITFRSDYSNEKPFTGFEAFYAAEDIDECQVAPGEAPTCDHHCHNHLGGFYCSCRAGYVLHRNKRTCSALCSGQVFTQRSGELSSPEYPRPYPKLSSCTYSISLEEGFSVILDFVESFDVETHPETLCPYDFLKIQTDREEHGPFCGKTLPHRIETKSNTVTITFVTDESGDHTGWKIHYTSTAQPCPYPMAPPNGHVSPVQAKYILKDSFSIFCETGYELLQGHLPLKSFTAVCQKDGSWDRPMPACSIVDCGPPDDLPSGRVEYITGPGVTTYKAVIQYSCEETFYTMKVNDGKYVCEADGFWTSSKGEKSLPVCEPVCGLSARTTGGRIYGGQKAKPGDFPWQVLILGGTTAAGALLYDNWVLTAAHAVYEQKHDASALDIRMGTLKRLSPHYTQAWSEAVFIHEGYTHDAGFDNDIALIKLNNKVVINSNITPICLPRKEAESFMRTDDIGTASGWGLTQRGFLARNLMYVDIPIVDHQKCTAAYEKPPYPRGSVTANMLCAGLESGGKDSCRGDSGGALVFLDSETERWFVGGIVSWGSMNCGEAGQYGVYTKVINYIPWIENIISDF
T4 sequence (O00187 other isoform, or with tags, fused parts or gaps limits assumed): as the sequence (O00187 other isoform, or with tags, fused parts or gaps H508Q H508Q limits assumed) above, with Q222H counted along it

- Kd [1]: > 100 µg/mL
- Kd [2]: > 100 µg/mL
- Kd [3]: 0.047 µg/mL
- Kd [4]: 32.9 nM
- Kd [5]: ~2000 nM
- Kd [6]: 4.52 nM
- Kd [7]: 8.23 nM
- Kd [8]: > 100 µg/mL
B1: mAb OMS858 (humanized anti-MASP-2 antibody) (antibody, V domains shown)
VH: QVQLVQSGAEVKKPGASVKVSCKASGYTFTNHHMHWLRQAPGQGLEWIGDIDASDSETHYIEKFKDRATLTIDKSSSTAYMELSSLRSEDTAVYYCARGDITTTLRYFDVWGQGTLVTVSS
VL: DIQLTQSPSSLSASVGDRVTITCSASSSVRYMYWYQQKPGKAPKLLIYDTSNLASGVPSRFSGSGSGTDNTLTISSLQPEDFATYYCQQWSSYPLTFGQGTKVEIKR
notes: also called antibody OMS858; biotinylated OMS858
